Test results: US20180009871A1 (INTARCIA THERAPEUTICS, published 2018)
Where no end group is shown, it is not given here. [ ]: non-standard residue; d: D form. Aib = CC(C)(N)C(=O)O

T1: hGIPR (human, UniProt P48546 22-466, limits assumed)
T1 sequence (looked up): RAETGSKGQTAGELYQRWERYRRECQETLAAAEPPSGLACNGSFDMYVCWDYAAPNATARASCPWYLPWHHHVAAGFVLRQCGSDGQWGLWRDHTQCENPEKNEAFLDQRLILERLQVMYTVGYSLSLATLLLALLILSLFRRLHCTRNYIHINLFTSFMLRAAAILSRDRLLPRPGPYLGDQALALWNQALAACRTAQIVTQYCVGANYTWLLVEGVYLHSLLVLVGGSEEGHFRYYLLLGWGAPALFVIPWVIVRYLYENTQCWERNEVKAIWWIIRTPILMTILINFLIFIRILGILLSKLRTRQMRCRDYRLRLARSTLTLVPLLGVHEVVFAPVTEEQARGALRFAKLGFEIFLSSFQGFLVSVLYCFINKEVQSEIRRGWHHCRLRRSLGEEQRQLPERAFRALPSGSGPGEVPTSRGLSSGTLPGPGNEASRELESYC

B1: Compound A2 (peptide)
peptide: YSHGTFTSDYSKYLD[Aib]KSAQEFV[Aib]WLEDEPSSGAPPPS-OH
modifications: N-terminus assumed
SMILES: CC(C)C[C@H](NC(=O)[C@H](Cc1ccc(O)cc1)NC(=O)[C@H](CCCCN)NC(=O)[C@H](CO)NC(=O)[C@H](Cc1ccc(O)cc1)NC(=O)[C@H](CC(=O)O)NC(=O)[C@H](CO)NC(=O)[C@@H](NC(=O)[C@H](Cc1ccccc1)NC(=O)[C@@H](NC(=O)CNC(=O)[C@H](Cc1c[nH]cn1)NC(=O)[C@H](CO)NC(=O)[C@@H](N)Cc1ccc(O)cc1)[C@@H](C)O)[C@@H](C)O)C(=O)N[C@@H](CC(=O)O)C(=O)NC(C)(C)C(=O)N[C@@H](CCCCN)C(=O)N[C@@H](CO)C(=O)N[C@@H](C)C(=O)N[C@@H](CCC(N)=O)C(=O)N[C@@H](CCC(=O)O)C(=O)N[C@@H](Cc1ccccc1)C(=O)N[C@H](C(=O)NC(C)(C)C(=O)N[C@@H](Cc1c[nH]c2ccccc12)C(=O)N[C@@H](CC(C)C)C(=O)N[C@@H](CCC(=O)O)C(=O)N[C@@H](CC(=O)O)C(=O)N[C@@H](CCC(=O)O)C(=O)N1CCC[C@H]1C(=O)N[C@@H](CO)C(=O)N[C@@H](CO)C(=O)NCC(=O)N[C@@H](C)C(=O)N1CCC[C@H]1C(=O)N1CCC[C@H]1C(=O)N1CCC[C@H]1C(=O)N[C@@H](CO)C(=O)O)C(C)C
B2: Compound A1 (peptide)
peptide: YSHGTFTSDYSKYLD[Aib]KYAQEFV[Aib]WLEDEPSSGAPPPS-OH
modifications: N-terminus assumed
SMILES: CC(C)C[C@H](NC(=O)[C@H](Cc1ccc(O)cc1)NC(=O)[C@H](CCCCN)NC(=O)[C@H](CO)NC(=O)[C@H](Cc1ccc(O)cc1)NC(=O)[C@H](CC(=O)O)NC(=O)[C@H](CO)NC(=O)[C@@H](NC(=O)[C@H](Cc1ccccc1)NC(=O)[C@@H](NC(=O)CNC(=O)[C@H](Cc1c[nH]cn1)NC(=O)[C@H](CO)NC(=O)[C@@H](N)Cc1ccc(O)cc1)[C@@H](C)O)[C@@H](C)O)C(=O)N[C@@H](CC(=O)O)C(=O)NC(C)(C)C(=O)N[C@@H](CCCCN)C(=O)N[C@@H](Cc1ccc(O)cc1)C(=O)N[C@@H](C)C(=O)N[C@@H](CCC(N)=O)C(=O)N[C@@H](CCC(=O)O)C(=O)N[C@@H](Cc1ccccc1)C(=O)N[C@H](C(=O)NC(C)(C)C(=O)N[C@@H](Cc1c[nH]c2ccccc12)C(=O)N[C@@H](CC(C)C)C(=O)N[C@@H](CCC(=O)O)C(=O)N[C@@H](CC(=O)O)C(=O)N[C@@H](CCC(=O)O)C(=O)N1CCC[C@H]1C(=O)N[C@@H](CO)C(=O)N[C@@H](CO)C(=O)NCC(=O)N[C@@H](C)C(=O)N1CCC[C@H]1C(=O)N1CCC[C@H]1C(=O)N1CCC[C@H]1C(=O)N[C@@H](CO)C(=O)O)C(C)C
B3: Compound A1 (peptide)
peptide: YSHGTFTSDYSKYLD[Aib]KYAQEFV[Aib]WLEDEPSSGAPPPS-OH
modifications: N-terminus assumed
SMILES: CC(C)C[C@H](NC(=O)[C@H](Cc1ccc(O)cc1)NC(=O)[C@H](CCCCN)NC(=O)[C@H](CO)NC(=O)[C@H](Cc1ccc(O)cc1)NC(=O)[C@H](CC(=O)O)NC(=O)[C@H](CO)NC(=O)[C@@H](NC(=O)[C@H](Cc1ccccc1)NC(=O)[C@@H](NC(=O)CNC(=O)[C@H](Cc1c[nH]cn1)NC(=O)[C@H](CO)NC(=O)[C@@H](N)Cc1ccc(O)cc1)[C@@H](C)O)[C@@H](C)O)C(=O)N[C@@H](CC(=O)O)C(=O)NC(C)(C)C(=O)N[C@@H](CCCCN)C(=O)N[C@@H](Cc1ccc(O)cc1)C(=O)N[C@@H](C)C(=O)N[C@@H](CCC(N)=O)C(=O)N[C@@H](CCC(=O)O)C(=O)N[C@@H](Cc1ccccc1)C(=O)N[C@H](C(=O)NC(C)(C)C(=O)N[C@@H](Cc1c[nH]c2ccccc12)C(=O)N[C@@H](CC(C)C)C(=O)N[C@@H](CCC(=O)O)C(=O)N[C@@H](CC(=O)O)C(=O)N[C@@H](CCC(=O)O)C(=O)N1CCC[C@H]1C(=O)N[C@@H](CO)C(=O)N[C@@H](CO)C(=O)NCC(=O)N[C@@H](C)C(=O)N1CCC[C@H]1C(=O)N1CCC[C@H]1C(=O)N1CCC[C@H]1C(=O)N[C@@H](CO)C(=O)O)C(C)C
B4: Compound A4 (peptide)
peptide: YSHGTFTSDYSKYLD[Aib]KRAQEFVIWLEDEPSSGAPPPS-OH
modifications: N-terminus assumed
SMILES: CC[C@H](C)[C@H](NC(=O)[C@@H](NC(=O)[C@H](Cc1ccccc1)NC(=O)[C@H](CCC(=O)O)NC(=O)[C@H](CCC(N)=O)NC(=O)[C@H](C)NC(=O)[C@H](CCCNC(=N)N)NC(=O)[C@H](CCCCN)NC(=O)C(C)(C)NC(=O)[C@H](CC(=O)O)NC(=O)[C@H](CC(C)C)NC(=O)[C@H](Cc1ccc(O)cc1)NC(=O)[C@H](CCCCN)NC(=O)[C@H](CO)NC(=O)[C@H](Cc1ccc(O)cc1)NC(=O)[C@H](CC(=O)O)NC(=O)[C@H](CO)NC(=O)[C@@H](NC(=O)[C@H](Cc1ccccc1)NC(=O)[C@@H](NC(=O)CNC(=O)[C@H](Cc1c[nH]cn1)NC(=O)[C@H](CO)NC(=O)[C@@H](N)Cc1ccc(O)cc1)[C@@H](C)O)[C@@H](C)O)C(C)C)C(=O)N[C@@H](Cc1c[nH]c2ccccc12)C(=O)N[C@@H](CC(C)C)C(=O)N[C@@H](CCC(=O)O)C(=O)N[C@@H](CC(=O)O)C(=O)N[C@@H](CCC(=O)O)C(=O)N1CCC[C@H]1C(=O)N[C@@H](CO)C(=O)N[C@@H](CO)C(=O)NCC(=O)N[C@@H](C)C(=O)N1CCC[C@H]1C(=O)N1CCC[C@H]1C(=O)N1CCC[C@H]1C(=O)N[C@@H](CO)C(=O)O

Columns and labels:
Test in all cases: cell-based or functional assay
[1] = biological target: human glucagon receptor (GCGR) (human, UniProt P47871 26-477)
[2] = biological target: human GLP-1 receptor (GLP-1R) (human, UniProt P43220 24-463)
Target sequence in this assay (P43220 24-463): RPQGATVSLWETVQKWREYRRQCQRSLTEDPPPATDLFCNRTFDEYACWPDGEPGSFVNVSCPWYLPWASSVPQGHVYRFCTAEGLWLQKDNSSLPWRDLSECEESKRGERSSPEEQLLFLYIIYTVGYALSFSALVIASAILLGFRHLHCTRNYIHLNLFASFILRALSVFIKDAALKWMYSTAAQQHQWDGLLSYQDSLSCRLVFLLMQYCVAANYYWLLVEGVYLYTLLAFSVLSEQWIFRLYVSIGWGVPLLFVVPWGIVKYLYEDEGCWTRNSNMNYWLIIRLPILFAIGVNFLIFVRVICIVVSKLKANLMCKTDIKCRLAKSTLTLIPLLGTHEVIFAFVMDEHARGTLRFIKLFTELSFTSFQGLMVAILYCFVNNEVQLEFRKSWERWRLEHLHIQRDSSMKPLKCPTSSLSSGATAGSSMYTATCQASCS

[3] = biological target: T2, human GLP-1 receptor (GLP-1R) (human, UniProt P43220 24-463); remark: listed apart in the source
T2 sequence (P43220 24-463): as above

[4] = biological target: T3, human glucagon receptor (GCGR) (human, UniProt P47871 26-477); remark: listed apart in the source
[5] = biological target: T2, human GLP-1 receptor (GLP-1R); remark: listed apart in the source
[6] = biological target: T3, human glucagon receptor (GCGR); remark: listed apart in the source
[7] = biological target: T1, hGIPR

Binder | hGCGR pEC50 (cAMP) mean (n = 9): 11 point curve starting at 1 uM [1] [pEC50] | hGLP1 pEC50 (cAMP) mean (n = 9): 11 point curve starting at 500 uM [2] [pEC50] | GLP-1R pEC 50 [3] [pEC50] | GluR pEC 50 [4] [pEC50] | Human in vitro Potency (pEC50), hGLP-1R [5] [pEC50] | Human in vitro Potency (pEC50), hGCGR [6] [pEC50] | Human in vitro Potency (pEC50), hGIPR [7] [pEC50]
B1 | 11.7 | 5.4 | – | – | – | – | –
B2 | 12.3 | 5.2 | – | – | – | – | –
YSQGTFTSDYSKYLDAARAQEFVKWLEDEPKSKSPPPS-NH2 [Compound A3] | 12.1 | 6.7 | – | – | – | – | –
B3 | – | – | < 6 | 10.6 | 5.2 | 12.3 | < 5
B4 | 11.8 | < 5 | – | – | – | – | –
YSHGTFTSDYSKYLDSARAQEFVKWLEDEPSSGAPPPS-NH2 [Compound A5] | 11.8 | 5.8 | – | – | – | – | –
